# Target: SARS-CoV-2 nucleocapsid phosphoprotein (SARS-CoV-2, UniProt P0DTC9 1-419)
# Assay: SPR
row,Binder,Kd [nM]
1,"antibody 9-11 (antibody, V domains shown) VH: QVQLVQSGAEVKKPGASVKVSCKASGYTFTSYAISWVRQAPGQGLEWMGWISAYTGNTNYAQKLQGRVTMTTDTSTSTAYMELRSLRSDDTAVYYCARNGWDYDTSGTHDYWGQGTLVTVSS VL: not shown",0.08
2,"antibody 9-24 (antibody, V domains shown) VH: EVQLVESGGGLVQPGGSLRLSCAASGFTFSDSAVHWVRQASGKGLEWVGRIRNRNNNYATAYAASVKGRFTISRDDSENMAYLQMNGLKTEDTAIYYCTDLLAYWGQGTLLTVSS VL: SYELTQPPSVSVSPGQTARITCSADALPKQYAYWYQQKAGQAPVLVIYKDNERPSGIPERFSGSSSGTTVTLTISGVQAEDEADYYCQSADSSGGYRVFGGGTKLTVL",2.36
3,"antibody 9-17 (antibody, V domains shown) VH: QVQLVQSGAEVKKPGSSVKVSCKASGGTFSNYVISWVRQAPGQGLEWMGGIIPIFGTAKYAQKFQGRVAITADESTSTAYMEVSSLRSEDTAVYYCARAGYCSGGSCRRPSDYYGMDVWGQGTTVTVSS VL: not shown",0.18
4,"antibody 9-15 (antibody, V domains shown) VH: QVQLVQSGAEVKKPGSSVKVSCKASGGTFSSYAISWVRQAPGQGLEWMGGIIPIFGTANYAQKFQGRVTITAEESTSTAYMELSSLRSEDTAVYYCARDGWAAAGPDTSLLGTFDIWGQGTMVTVSS VL: QSALTQPPSVSGSPGQSVTISCTGTSSDVGSYNRVSWYQQPPGTAPKLIIYEVSNRPSGVPDRFSGSKSGNTASLTISGLQAEDEADYYCSSYTSSSTYVVFGGGTKLTVL",0.1

# — patent US20240003880A1 (published 2024)
